Results from patent publication US20240301068A1 (BEIJING HANMI PHARMACEUTICAL, published 2024).

Tests used:
[1] = target: T1, recombinant human PD-L1 (Sino Biological Inc.) (human, UniProt Q9NZQ7 19-239); assay: PD-L1/CD80 blocking assay, competitor CD80, format not described
[2] = target: T1, recombinant human PD-L1 (Sino …); assay: ELISA, plate coated with 1 ug/mL recombinant human PD-L1, anti-human IgG-HRP, OD450
Experimental: (§1) A 96-well high-adsorption ELISA plate was coated with 1 μg/mL of the recombinant human PD-L1, cynomolgus PD-L1, rat PD-L1 and mouse PD-L1 (all purchased from Sino Biological Inc.), at 100 μL per well using carbonate buffer solution, pH=9.6 at 4° C. overnight. The plate was washed 5 times with PBST, and then blocked using PBST with 1% BSA, 300 μL/well, and incubated at 25° C. for 1 hour, and then washed 5 times with PBST. The chimeric anti-human PD-L1 antibody samples serially diluted in PBST with 1% BSA were added, 100 μL/well, incubated at 25° C. for 1 hour, and then washed 5 times with PBST. The horseradish peroxidase-labeled anti-human IgG antibody (Chemicon, catalog number AP309P) diluted 1:10000 in PBST with 1% BSA was then added, 100 μL per well, and incubated at 25° C. for 1 hour. The plate was washed 5 times with PBST. The colorimetric substrate TMB was added, 100 μL/well, and developed at room temperature for 10 minutes. 1M H₂SO₄ was added, 100 μL/well, to stop the development. The absorbance at 450 nm was read on a microplate reader.

[3] = target: recombinant mouse PD-L1 (Sino Biological Inc.) (mouse, UniProt Q9EP73 19-238); assay: ELISA, plate coated with 1 ug/mL recombinant mouse PD-L1, anti-human IgG-HRP, OD450
Experimental: as §1

[4] = target: T2, recombinant human CD80 (Sino Biological Inc.) (human, UniProt P33681 35-242); assay: ELISA, plate coated with 1 ug/mL recombinant human CD80 (printed B7-1), anti-human IgG-HRP, OD450; antibody concentration not shown
T2 sequence (looked up): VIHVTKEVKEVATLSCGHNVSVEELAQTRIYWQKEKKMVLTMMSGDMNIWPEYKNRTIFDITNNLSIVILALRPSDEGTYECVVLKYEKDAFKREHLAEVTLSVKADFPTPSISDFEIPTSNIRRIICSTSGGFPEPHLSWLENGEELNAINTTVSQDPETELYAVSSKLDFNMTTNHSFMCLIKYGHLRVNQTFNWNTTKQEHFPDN
Experimental: The plate was washed 5 times with PBST, and then blocked using PBST with 1% BSA, 300 μL/well, and incubated at 25° C. for 1 hour, and then washed 5 times with PBST. […] The horseradish peroxidase-labeled anti-human IgG antibody (Chemicon, catalog number AP309P) diluted 1:10000 in PBST with 1% BSA was then added, 100 μL per well, and incubated at 25° C. for 1 hour. The plate was washed 5 times with PBST. The colorimetric substrate TMB was added, 100 μL/well, and developed at room temperature for 10 minutes. 1M H₂SO₄ was added, 100 μL/well, to stop the development. The absorbance at 450 nm was read on a microplate reader.

T1 sequence (Q9NZQ7 19-239 limits assumed): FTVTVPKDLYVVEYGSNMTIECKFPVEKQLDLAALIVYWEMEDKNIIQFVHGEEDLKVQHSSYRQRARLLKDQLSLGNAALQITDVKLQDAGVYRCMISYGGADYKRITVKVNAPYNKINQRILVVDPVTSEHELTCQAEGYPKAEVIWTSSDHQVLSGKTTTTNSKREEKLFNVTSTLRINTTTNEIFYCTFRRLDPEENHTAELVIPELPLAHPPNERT
recombinant mouse PD-L1 (Sino Biological Inc.), sequence (Q9EP73 19-238 limits assumed): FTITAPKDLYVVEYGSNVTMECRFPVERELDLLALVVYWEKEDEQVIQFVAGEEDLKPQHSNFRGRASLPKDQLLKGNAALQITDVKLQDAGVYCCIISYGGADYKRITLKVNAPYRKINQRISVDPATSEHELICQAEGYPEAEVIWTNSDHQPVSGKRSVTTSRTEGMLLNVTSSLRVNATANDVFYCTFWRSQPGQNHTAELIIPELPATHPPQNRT

B1: chimeric anti-human PD-L1 monoclonal antibody (antibody, human IgG1, kappa, V domains shown)
VH: EVQLQQSGAELVKPGASVKLSCTASGFNIEDTYIHWVMQRPEQGLEWIGRIDPANGNTKYDPKFQGKATITADTSSNTAYLQLSSLTSEDTAVYYCGRGLGAWFAYWGQGTLVTVSA
VL: DIVMTQSHKVMSTSVGDRVTITCKASQDVHTAVAWIHQKPGQSPKLLIYSASNRYTGVPDRFTGSGSGTDFTFTISSVQAEDLAVYYCQQHYITPLTFGAGTTLELKR
notes: expressed in ExpiCHO cells; also called Chimeric mAb; Chimeric antibody
[1]
  IC50: 0.762 nM
[2]
  EC50: 0.056 nM
[3]
  binding result: no binding (tested: about 20 nM (last point on the log axis))
[4]
  binding result: no binding
